Results reported in paper PMC10397247.

How the values were obtained:
Experiment in all cases: two-hybrid library CCNG1;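 further: natural log of median RNA to DNA barcode read ratio; higher means stronger binding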
[1] = target: T1, 4H2233-bA
T1 chain: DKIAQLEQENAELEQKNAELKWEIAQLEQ

[2] = target: T2, 4H2253-bA
T2 chain: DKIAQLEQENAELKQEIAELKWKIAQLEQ

[3] = target: T3, 4H235-bA
T3 chain: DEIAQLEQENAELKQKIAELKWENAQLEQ

[4] = target: T4, 4H2444-bA
T4 chain: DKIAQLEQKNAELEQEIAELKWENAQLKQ

[5] = target: T5, 4H2518-bA
T5 chain: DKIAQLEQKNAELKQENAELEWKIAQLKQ

[6] = target: T6, 4H2585-bA
T6 chain: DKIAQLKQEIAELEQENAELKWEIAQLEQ

[7] = target: T7, 4H264-bA
T7 chain: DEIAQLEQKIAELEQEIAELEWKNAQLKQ

[8] = target: T8, 4H2760-bA
T8 chain: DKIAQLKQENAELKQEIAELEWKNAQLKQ

[9] = target: T9, 4H2859-bA
T9 chain: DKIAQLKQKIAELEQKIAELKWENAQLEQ

[10] = target: T10, 4H2931-bA
T10 chain: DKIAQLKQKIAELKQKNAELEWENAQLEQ

[11] = target: T11, 4H3041-bA
T11 chain: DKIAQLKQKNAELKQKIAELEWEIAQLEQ

[12] = target: T12, 4H3297-bA
T12 chain: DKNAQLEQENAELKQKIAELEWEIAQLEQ

[13] = target: T13, 4H3364-bA
T13 chain: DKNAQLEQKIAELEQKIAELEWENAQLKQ

[14] = target: T14, 4H3381-bA
T14 chain: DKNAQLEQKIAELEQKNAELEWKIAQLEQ

[15] = target: T15, 4H349-bA
T15 chain: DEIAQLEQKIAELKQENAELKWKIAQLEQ

[16] = target: T16, 4H56-bA
T16 chain: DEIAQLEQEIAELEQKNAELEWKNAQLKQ

[17] = target: T17, 4H730-bA
T17 chain: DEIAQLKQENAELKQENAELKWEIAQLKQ

[18] = target: T18, 4H796-bA
T18 chain: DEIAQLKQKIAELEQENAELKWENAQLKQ

[19] = target: T19, 4H932-bA
T19 chain: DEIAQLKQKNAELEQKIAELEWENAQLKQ

[20] = target: T20, 4H949-bA
T20 chain: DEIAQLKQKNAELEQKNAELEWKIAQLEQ

[21] = target: T21, 4H1348-bH
T21 chain: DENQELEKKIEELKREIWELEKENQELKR

[22] = target: T22, 4H1373-bH
T22 chain: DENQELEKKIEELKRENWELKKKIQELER

[23] = target: T23, 4H1449-bH
T23 chain: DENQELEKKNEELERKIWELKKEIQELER

[24] = target: T24, 4H1544-bH
T24 chain: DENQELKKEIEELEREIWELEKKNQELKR

[25] = target: T25, 4H1710-bH
T25 chain: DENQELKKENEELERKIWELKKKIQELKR

[26] = target: T26, 4H1899-bH
T26 chain: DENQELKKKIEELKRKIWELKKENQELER

[27] = target: T27, 4H1985-bH
T27 chain: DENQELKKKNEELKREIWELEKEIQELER

[28] = target: T28, 4H3162-bH
T28 chain: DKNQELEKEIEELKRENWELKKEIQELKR

[29] = target: T29, 4H3175-bH
T29 chain: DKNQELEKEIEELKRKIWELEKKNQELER

[30] = target: T30, 4H3185-bN
T30 chain: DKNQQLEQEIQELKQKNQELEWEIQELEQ

[31] = target: T31, 4H3277-bH
T31 chain: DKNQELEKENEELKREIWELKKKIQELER

[32] = target: T32, 4H3298-bH
T32 chain: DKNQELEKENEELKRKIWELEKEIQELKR

[33] = target: T33, 4H3462-bH
T33 chain: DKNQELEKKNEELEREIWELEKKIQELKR

[34] = target: T34, 4H3497-bH
T34 chain: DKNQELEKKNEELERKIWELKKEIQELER

[35] = target: T35, 4H3613-bH
T35 chain: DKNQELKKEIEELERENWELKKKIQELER

[36] = target: T36, 4H3628-bH
T36 chain: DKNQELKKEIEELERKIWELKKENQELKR

[37] = target: T37, 4H3817-bH
T37 chain: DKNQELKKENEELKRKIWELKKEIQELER

[38] = target: T38, 4H3858-bH
T38 chain: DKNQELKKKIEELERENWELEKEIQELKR

[39] = target: T39, 4H3926-bH
T39 chain: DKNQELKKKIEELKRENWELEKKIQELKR

[40] = target: T40, 4H3974-bH
T40 chain: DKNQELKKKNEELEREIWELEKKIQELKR

[41] = target: T41, 4H570-bH
T41 chain: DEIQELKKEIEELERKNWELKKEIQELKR

[42] = target: T42, 4H591-bH
T42 chain: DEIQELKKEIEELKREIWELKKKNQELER

[43] = target: T43, 4H626-bH
T43 chain: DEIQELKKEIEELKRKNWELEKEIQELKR

[44] = target: T44, 4H850-bH
T44 chain: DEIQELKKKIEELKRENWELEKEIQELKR

[45] = target: T45, 4H906-bH
T45 chain: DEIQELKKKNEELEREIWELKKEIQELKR

## DKIAQLEQENAELEQKNAELKWEIAQLEQ [4H2233-bA]
[1]
  interaction score: -0.789
[2]
  interaction score: -1.28
[3]
  interaction score: -1.01
[4]
  interaction score: -1.1
[5]
  interaction score: 2.31
[6]
  interaction score: -1.22
[7]
  interaction score: -1.45
[8]
  interaction score: -0.641
[9]
  interaction score: -0.945
[10]
  interaction score: -1.08
[11]
  interaction score: 0.018
[12]
  interaction score: -0.632
[13]
  interaction score: -0.979
[14]
  interaction score: -0.976
[15]
  interaction score: -1.43
[16]
  interaction score: -1.39
[17]
  interaction score: -1.24
[18]
  interaction score: -1.42
[19]
  interaction score: -1.01
[20]
  interaction score: -1

## DENQELEKKIEELKREIWELEKENQELKR [4H1348-bH]
[21]
  interaction score: 0.814
[22]
  interaction score: 0.103
[23]
  interaction score: 1.19
[24]
  interaction score: 1.3
[25]
  interaction score: -0.0273
[26]
  interaction score: 0.883
[27]
  interaction score: 0.722
[28]
  interaction score: 0.415
[29]
  interaction score: 0.435
[30]
  interaction score: -1.2
[31]
  interaction score: -0.13
[32]
  interaction score: 0.0904
[33]
  interaction score: 0.558
[34]
  interaction score: 0.0523
[35]
  interaction score: -1.69
[36]
  interaction score: 1.42
[37]
  interaction score: 0.205
[38]
  interaction score: 0.0862
[39]
  interaction score: 0.857
[40]
  interaction score: 1.36
[41]
  interaction score: -0.807
[42]
  interaction score: -1.39
[43]
  interaction score: -1.01
[44]
  interaction score: 0.659
[45]
  interaction score: -0.14
